Legend:
[1] = target: solubilized, full length GCGR, biotinylated (from baculovirus particles) (Homo sapiens (Human)) (UniProt P47871); assay: Octet BLI kinetics, biotinylated solubilized full length GCGR on streptavidin tips, Fab in solution
[2] = target: T1, GCGR (glucagon receptor) on primary human hepatocytes (human, UniProt P47871 26-477); assay: competition with 3 nM 125I-glucagon on primary human hepatocytes, gamma counting
T1 construct: Endogenous receptor on primary human hepatocytes (Celsis)
T1 sequence (P47871 26-477 limits assumed): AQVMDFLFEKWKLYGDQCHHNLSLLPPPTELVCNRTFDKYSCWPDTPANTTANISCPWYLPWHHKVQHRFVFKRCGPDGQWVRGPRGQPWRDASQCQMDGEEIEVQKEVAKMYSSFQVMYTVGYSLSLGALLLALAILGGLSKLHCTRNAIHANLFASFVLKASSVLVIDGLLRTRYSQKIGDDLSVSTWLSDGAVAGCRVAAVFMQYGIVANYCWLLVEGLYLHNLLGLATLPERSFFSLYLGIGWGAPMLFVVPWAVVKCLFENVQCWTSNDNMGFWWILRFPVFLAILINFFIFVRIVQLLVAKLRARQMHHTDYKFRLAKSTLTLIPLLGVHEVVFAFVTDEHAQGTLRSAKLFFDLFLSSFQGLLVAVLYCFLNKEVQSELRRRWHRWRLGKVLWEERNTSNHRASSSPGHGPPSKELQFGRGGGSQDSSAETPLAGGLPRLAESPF

solubilized, full length GCGR, biotinylated (from baculovirus particles) (Homo sapiens (Human)), sequence (P47871 26-477): as the sequence (P47871 26-477 limits assumed) above

B1: H6.23v3 Fab fragment (Fab, V domains shown)
VH: EVQLVESGGGLVQPGGSLRLSCAASGFNIYYNYIHWVRQAPGKGLEWVAEFSPYSGSTYYADSVKGRFTISADTSKNTAYLQMNSLRAEDTAVYYCARSAAIVDWYDYFKGFDYWGQGTLVTVSS
VL: DIQMTQSPSSLSASVGDRVTITCRASQSVSSAVAWYQQKPGKAPKLLIYSASSLYSGVPSRFSGSRSGTDFTLTISSLQPEDFATYYCQQYGSYLYTFGQGTKVEIK
Question: With B1 as the binder, how does the fold increase in affinity (Kd) over H6.23v2 [1] read?
Answer: Its fold increase in affinity (Kd) over H6.23v2 is 3 fold.

B2: anti-GCGR antibody H6.23v3 (antibody, V domains shown)
VH: B1 VH
VL: B1 VL
Question: Does B2 bind [2]?
Answer: Result: binds

— patent WO2013059531A1 (dated 2013)
